Measurements taken from publication PMC3302767.

Tests used:
[1] = biological target: Plasmodium falciparum formin 1 FH2 domain with the lasso segment (Pf-Frm1-FH2) (P. falciparum); test: SEC-MALS; Superdex 200 10/300 GL, 200 µl of each formin at 1 mg/ml; 50 mM sodium phosphate pH 7.0, 50 mM NaCl, 1 mM DTT; monomer to dimer
[2] = biological target: Plasmodium falciparum formin 1 FH1 and FH2 domains (Pf-Frm1-FH1FH2) (P. falciparum); test: as above

| Substance | stoichiometry N [1] | stoichiometry N [2] |
| --- | --- | --- |
| Plasmodium falciparum formin 1 FH2 domain with the lasso segment (Pf-Frm1-FH2) (domain or fragment) | 2 |  |
| Plasmodium falciparum formin 1 FH1 and FH2 domains (Pf-Frm1-FH1FH2) (domain or fragment) |  | 2 |
